T1: YFP-Myosin 7b MF2 (human, UniProt Q6PIF6 1605-2116)
T1 construct: Myosin 7b, human, MF2, residues 1605-2116 of UniProt Q6PIF6; pET14-YFP vector; also called ^YFPM7b MF2; source: E. coli (BL21-AI, BL21 (DE3) Rosetta or BL21-Gold (DE3)), purified (Histrap, CaptoQ, gel filtration)
T1 sequence (looked up): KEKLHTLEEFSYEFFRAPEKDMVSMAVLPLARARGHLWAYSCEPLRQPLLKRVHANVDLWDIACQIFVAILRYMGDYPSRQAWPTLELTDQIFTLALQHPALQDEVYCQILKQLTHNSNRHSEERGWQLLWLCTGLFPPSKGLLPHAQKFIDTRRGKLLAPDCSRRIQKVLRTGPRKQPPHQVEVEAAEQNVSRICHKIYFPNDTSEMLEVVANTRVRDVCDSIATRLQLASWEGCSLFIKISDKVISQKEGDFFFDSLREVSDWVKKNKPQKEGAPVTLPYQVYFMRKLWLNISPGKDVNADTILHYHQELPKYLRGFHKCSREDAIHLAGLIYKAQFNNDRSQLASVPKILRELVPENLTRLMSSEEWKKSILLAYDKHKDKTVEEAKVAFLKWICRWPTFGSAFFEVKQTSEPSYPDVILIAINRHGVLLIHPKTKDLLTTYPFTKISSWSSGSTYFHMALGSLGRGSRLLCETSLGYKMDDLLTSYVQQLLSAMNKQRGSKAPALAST

T2: YFP-Full length (FL)-harmonin (harmonin-a1) (human, UniProt Q9Y6N9-1 1-552)
T2 construct: Harmonin-a1 (USH1C), human, residues 1-552 of UniProt Q9Y6N9-1; also called ^YFPFL (isoA); ^YFPFL; source: E. coli BL21 (DE3) Rosetta, purified (Glutathione Sepharose 4B, size-exclusion chromatography)
T2 sequence (looked up): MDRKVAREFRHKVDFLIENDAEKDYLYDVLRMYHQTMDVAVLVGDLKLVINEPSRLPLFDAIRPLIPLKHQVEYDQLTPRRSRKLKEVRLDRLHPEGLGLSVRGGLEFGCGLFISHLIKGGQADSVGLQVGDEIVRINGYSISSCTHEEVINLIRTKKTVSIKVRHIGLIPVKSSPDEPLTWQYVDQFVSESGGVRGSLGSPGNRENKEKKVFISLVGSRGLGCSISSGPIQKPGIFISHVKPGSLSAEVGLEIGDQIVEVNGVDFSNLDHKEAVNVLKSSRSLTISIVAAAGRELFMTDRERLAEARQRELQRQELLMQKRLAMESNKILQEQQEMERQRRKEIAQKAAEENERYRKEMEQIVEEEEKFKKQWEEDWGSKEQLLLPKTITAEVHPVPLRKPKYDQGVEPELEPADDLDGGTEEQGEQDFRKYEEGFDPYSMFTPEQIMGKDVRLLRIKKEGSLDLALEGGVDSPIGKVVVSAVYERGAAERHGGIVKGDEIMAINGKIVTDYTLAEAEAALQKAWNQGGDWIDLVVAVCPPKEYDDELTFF

B1: Harmonin-a PDZ3c D546R (domain or fragment, human, UniProt Q9Y6N9-1 428-552, looked up)
chain: QDFRKYEEGFDPYSMFTPEQIMGKDVRLLRIKKEGSLDLALEGGVDSPIGKVVVSAVYERGAAERHGGIVKGDEIMAINGKIVTDYTLAEAEAALQKAWNQGGDWIDLVVAVCPPKEYRDELTFF
notes: Harmonin-a1 (USH1C), human, residues 428-552 of UniProt Q9Y6N9-1; also called PDZ3c (isoA) D546R; source: E. coli BL21 (DE3) Rosetta, purified similarly as wild type
B2: YFP-Harmonin-a PDZ3c I476W (domain or fragment, human, UniProt Q9Y6N9-1 428-552, looked up)
chain: B1 chain with I49W, R119D
notes: Harmonin-a1 (USH1C), human, residues 428-552 of UniProt Q9Y6N9-1; also called ^YFPPDZ3c (isoA) I476W; source: E. coli BL21 (DE3) Rosetta, purified similarly as wild type
B3: YFP-Harmonin-a PDZ3c E469A (domain or fragment, human, UniProt Q9Y6N9-1 428-552, looked up)
chain: B1 chain with E42A, R119D
notes: Harmonin-a1 (USH1C), human, residues 428-552 of UniProt Q9Y6N9-1; also called ^YFPPDZ3c (isoA) E469A; PDZ3 E469A; source: E. coli BL21 (DE3) Rosetta, purified similarly as wild type
B4: YFP-Harmonin-a PDZ3c E469A-I476W (domain or fragment, human, UniProt Q9Y6N9-1 428-552, looked up)
chain: B1 chain with E42A, I49W, R119D
notes: Harmonin-a1 (USH1C), human, residues 428-552 of UniProt Q9Y6N9-1; also called ^YFPPDZ3c (isoA) E469A-I476W; source: E. coli BL21 (DE3) Rosetta, purified similarly as wild type
B5: Harmonin NPDZ1.PDZ2 (domain or fragment, human, UniProt Q9Y6N9-1 1-301, looked up)
chain: MDRKVAREFRHKVDFLIENDAEKDYLYDVLRMYHQTMDVAVLVGDLKLVINEPSRLPLFDAIRPLIPLKHQVEYDQLTPRRSRKLKEVRLDRLHPEGLGLSVRGGLEFGCGLFISHLIKGGQADSVGLQVGDEIVRINGYSISSCTHEEVINLIRTKKTVSIKVRHIGLIPVKSSPDEPLTWQYVDQFVSESGGVRGSLGSPGNRENKEKKVFISLVGSRGLGCSISSGPIQKPGIFISHVKPGSLSAEVGLEIGDQIVEVNGVDFSNLDHKEAVNVLKSSRSLTISIVAAAGRELFMTDR
notes: Harmonin-a1 (USH1C), human, N-terminal domain, PDZ1 and PDZ2, residues 1-301 of UniProt Q9Y6N9-1; source: E. coli BL21 (DE3) Rosetta, purified (Glutathione Sepharose 4B, size-exclusion chromatography)
B6: Myosin 7b MF2 (domain or fragment, human, UniProt Q6PIF6 1605-2116, looked up)
chain: T1 sequence (looked up)
notes: also called M7b MF2; Myo7b MF2; source: E. coli (BL21-AI, BL21 (DE3) Rosetta or BL21-Gold (DE3)), purified (Histrap, CaptoQ, gel filtration)
B7: Myosin 7a MF2 (domain or fragment, human, UniProt Q13402-1 1702-2215, looked up)
chain: TAEPEVRAKPYTLEEFSYDYFRPPPKHTLSRVMVSKARGKDRLWSHTREPLKQALLKKLLGSEELSQEACLAFIAVLKYMGDYPSKRTRSVNELTDQIFEGPLKAEPLKDEAYVQILKQLTDNHIRYSEERGWELLWLCTGLFPPSNILLPHVQRFLQSRKHCPLAIDCLQRLQKALRNGSRKYPPHLVEVEAIQHKTTQIFHKVYFPDDTDEAFEVESSTKAKDFCQNIATRLLLKSSEGFSLFVKIADKVLSVPENDFFFDFVRHLTDWIKKARPIKDGIVPSLTYQVFFMKKLWTTTVPGKDPMADSIFHYYQELPKYLRGYHKCTREEVLQLGALIYRVKFEEDKSYFPSIPKLLRELVPQDLIRQVSPDDWKRSIVAYFNKHAGKSKEEAKLAFLKLIFKWPTFGSAFFEVKQTTEPNFPEILLIAINKYGVSLIDPKTKDILTTHPFTKISNWSSGNTYFHITIGNLVRGSKLLCETSLGYKMDDLLTSYISQMLTAMSKQRGSRSGK
notes: Myosin 7a, human, C-terminal MyTH4-FERM domain (MF2), residues 1702-2215 of UniProt Q13402-1; Thrombin site of the vector replaced by an SSG linker; also called M7a MF2; Myo7a MF2; source: E. coli (BL21-AI, BL21 (DE3) Rosetta or BL21-Gold (DE3)), purified (Histrap, CaptoQ, gel filtration)

What all share (details): both partners purified
One assay has as its target T1, YFP-Myosin 7b MF2. Description: MST; YFP-fused partner constant at 100 nM, non-fluorescent protein titrated (16 two-fold dilutions); 20 mM Hepes pH 7.0, 100 mM NaCl, 1 mM EGTA, 0.5 mM TCEP, 0.05% Tween 20; Monolith NT.115.
The assay “Myosin 7a MF2” concerns the target B7. The description is as above.
The assay “Myosin 7b MF2” concerns the target B6. The description is as above.
Assay [1] concerns the target T2, YFP-Full length (FL)-harmonin …. As to the kind of experiment: MST; as a1 but 150 mM NaCl (for FL-Harmonin-a); YFP-fused partner constant at 100 nM, non-fluorescent protein titrated.
Assay [2] shares this target. The description is as above. This is another data set of the same source.

Numbering of substitutions follows the chain as printed. In names and notes the source's numbering stands.

The Kd is the free concentration of one partner at which half of the binding sites on the other are occupied at equilibrium, for simple one-to-one binding. The low end stands for higher affinity, the high end for lower affinity. For the molecule B1, the Kd with YFP-Myosin 7b MF2 is greater than 300 µM. As for B2, the Kd is 17.8 ± 1.1 µM with Myosin 7a MF2 and 18.1 ± 1.4 µM with Myosin 7b MF2. Consider B3, for which the results for the Kd with Myosin 7a MF2 and in the assay with Myosin 7b MF2 were 5.4 ± 1.5 µM and 6.11 ± 0.44 µM, respectively. Take B4: the Kd with Myosin 7a MF2 was found to be 70.4 ± 7.2 µM; in the assay with Myosin 7b MF2, 38.1 ± 4.9 µM. On to B5, for which the Kd in assay [1] is 3.4 ± 0.1 µM.

With B6, in assay [2], binding was put at a Kd of 2.05 ± 0.79 µM. Still for that read-out and setting: with B7 the figure was 2.36 µM.

For the origin of these results see publication PMC5493754, “Myosin 7 and its adaptors link cadherins to actin” (Nature Communications, 2017).
